{"source": "patent US20120264616A1", "target": "receptor for IFN λ expressed by reporter HL116 cells (UniProt Q8IU57)", "sequence (Q8IU57 21-520 limits assumed)": "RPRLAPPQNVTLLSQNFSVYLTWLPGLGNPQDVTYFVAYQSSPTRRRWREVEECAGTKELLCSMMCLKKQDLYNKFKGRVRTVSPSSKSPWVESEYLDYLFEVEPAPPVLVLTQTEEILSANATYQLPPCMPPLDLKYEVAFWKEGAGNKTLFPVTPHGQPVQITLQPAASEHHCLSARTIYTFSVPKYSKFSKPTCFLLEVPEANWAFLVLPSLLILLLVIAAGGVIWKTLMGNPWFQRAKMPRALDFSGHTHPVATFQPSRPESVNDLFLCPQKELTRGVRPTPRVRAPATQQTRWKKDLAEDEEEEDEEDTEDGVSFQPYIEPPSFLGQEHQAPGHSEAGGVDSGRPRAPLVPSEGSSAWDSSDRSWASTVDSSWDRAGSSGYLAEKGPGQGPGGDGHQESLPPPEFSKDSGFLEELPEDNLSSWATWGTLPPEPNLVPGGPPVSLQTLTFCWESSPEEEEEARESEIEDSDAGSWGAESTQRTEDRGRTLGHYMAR", "experiment": "cell-based or functional assay"}
{"substance": "interferon lambda (IFN λ) secreted into the culture supernatant by 293T cell clones transduced with parental lentiviral particles (ligand)", "values": [{"measurement": "Luc exp 1, clone 1", "result": 68.2}, {"measurement": "Luc exp 1, clone 2", "result": 73.2}, {"measurement": "Luc exp 1, clone 3", "result": 80.8}, {"measurement": "Luc exp 1, clone 4", "result": 84.3}, {"measurement": "Luc exp 1, clone 5", "result": 100}, {"measurement": "Luc exp 1, clone 6", "result": 77.7}, {"measurement": "Luc exp 1, clone 7", "result": 90.9}, {"measurement": "Luc exp 1, clone 8", "result": 88.9}, {"measurement": "Luc exp 1, clone 9", "result": 78.7}, {"measurement": "Luc exp 1, clone 10", "result": 89.8}, {"measurement": "Luc exp 1, clone 11", "result": 95.4}, {"measurement": "Luc exp 1, clone 12", "result": 77.2}, {"measurement": "Luc exp 1, clone 13", "result": 94.4}, {"measurement": "Luc exp 1, clone 14", "result": 89.2}, {"measurement": "Luc exp 1, clone 15", "result": 87.6}, {"measurement": "Luc exp 1, clone 16", "result": 81.4}, {"measurement": "Luc exp 1, clone 17", "result": 79.9}, {"measurement": "Luc exp 2, clone 1", "result": 68.8}, {"measurement": "Luc exp 2, clone 2", "result": 66.3}, {"measurement": "Luc exp 2, clone 3", "result": 87.3}, {"measurement": "Luc exp 2, clone 4", "result": 88.1}, {"measurement": "Luc exp 2, clone 5", "result": 97.8}, {"measurement": "Luc exp 2, clone 6", "result": 88.3}, {"measurement": "Luc exp 2, clone 7", "result": 95.1}, {"measurement": "Luc exp 2, clone 8", "result": 107}, {"measurement": "Luc exp 2, clone 9", "result": 99.2}, {"measurement": "Luc exp 2, clone 10", "result": 86.9}, {"measurement": "Luc exp 2, clone 11", "result": 75.8}, {"measurement": "Luc exp 2, clone 12", "result": 91.6}, {"measurement": "Luc exp 2, clone 13", "result": 94.8}, {"measurement": "Luc exp 2, clone 14", "result": 72.9}, {"measurement": "Luc exp 2, clone 15", "result": 87.8}, {"measurement": "Luc exp 2, clone 16", "result": 77.2}, {"measurement": "Luc exp 2, clone 17", "result": 71.7}, {"measurement": "Luciferase average, clone 1", "result": 68.2}, {"measurement": "Luciferase average, clone 2", "result": 69.7}, {"measurement": "Luciferase average, clone 3", "result": 84}, {"measurement": "Luciferase average, clone 4", "result": 86.3}, {"measurement": "Luciferase average, clone 5", "result": 99}, {"measurement": "Luciferase average, clone 6", "result": 83}, {"measurement": "Luciferase average, clone 7", "result": 93}, {"measurement": "Luciferase average, clone 8", "result": 97.9}, {"measurement": "Luciferase average, clone 9", "result": 89}, {"measurement": "Luciferase average, clone 10", "result": 88.3}, {"measurement": "Luciferase average, clone 11", "result": 85.6}, {"measurement": "Luciferase average, clone 12", "result": 84.4}, {"measurement": "Luciferase average, clone 13", "result": 94.6}, {"measurement": "Luciferase average, clone 14", "result": 81.1}, {"measurement": "Luciferase average, clone 15", "result": 87.7}, {"measurement": "Luciferase average, clone 16", "result": 79.3}, {"measurement": "Luciferase average, clone 17", "result": 75.8}]}
